{"source": "patent US5705609A", "about": "“Decorin fragments inhibiting cell regulatory factors” (La Jolla Cancer Research Foundation, priority 1995, dated 1998)", "molecules": {"B1": {"name": "DC-13: preparation of recombinant human decorin (protein)", "chain": "DEASGIGPEVPDDRDFEPSLGPVCPFRCQCHLRVVQCSDLGLDKVPKDLPPDTTLLDLQNNKITEIKDGDFKNLKNLHALILVNNKISKVSPGAFTPLVKLERLYLSKNQLKELPEKMPKTLQELRAHENEITKVRKVTFNGLNQMIVIELGTNPLKSSGIENGAFQGMKKLSYIRIADTNITSIPQGLPPSLTELHLDGNKISRVDAASLKGLNNLAKLGLSFNSISAVDNGSLANTPHLRELHLDNNKLTRVPGGLAEHKYIQVVYLHNNNISVVGSSDFCPPGHNTKKASYSGVSLFSNPVQYWEIQPSTFRCVYVRSAIQLGNYK", "modifications": "single glycosaminoglycan chain of a chondroitin sulfate/dermatan sulfate type on serine-4", "notes": "preparation of recombinant human decorin"}, "B2": {"name": "Recombinant human decorin: recombinant human decorin (DC-12) (protein)", "chain": "B1 chain", "modifications": "single glycosaminoglycan chain of a chondroitin sulfate/dermatan sulfate type on serine-4"}, "B3": {"name": "DC-18V: preparation of recombinant human decorin (protein)", "chain": "B1 chain", "modifications": "single glycosaminoglycan chain of a chondroitin sulfate/dermatan sulfate type on serine-4", "notes": "as for B1"}, "B4": {"name": "Decorin: recombinant decorin proteoglycan purified from transfected CHO cell media (protein)", "chain": "B1 chain", "modifications": "single glycosaminoglycan chain of a chondroitin sulfate/dermatan sulfate type on serine-4", "notes": "recombinant decorin proteoglycan purified from transfected CHO cell media"}, "B5": {"name": "chondroitinase ABC-digested biglycan: biglycan core protein prepared by chondroitinase ABC digestion (protein)", "chain": "DEEASGAETTSGIPDLDSLPPTYSAMCPFGCHCHLRVVQCSDLGLKAVPKEISPDTTLLDLQNNDISELRKDDFKGLQHLYALVLVNNKISKIHEKAFSPLRKLQKLYISKNHLVEIPPNLPSSLVELRIHDNRIRKVPKGVFSGLRNMNCIEMGGNPLENSGFEPGAFDGLKLNYLRISEAKLTGIPKDLPETLNELHLDHNKIQAIELEDLLRYSKLYRLGLGHNQIRMIENGSLSFLPTLRELHLDNNKLSRVPAGLPDLKLLQVVYLHTNNITKVGVNDFCPVGFGVKRAYYNGISLFNNPVPYWEVQPATFRCVTDRLAIQFGNYKK", "modifications": "glycosaminoglycan removed with chondroitinase ABC", "notes": "biglycan core protein prepared by chondroitinase ABC digestion"}}, "key": {"[1]": {"target": "T1, TGFβ-1 (Homo sapiens, UniProt P01137)"}, "[2]": {"target": "T1, TGFβ-1", "assay": "affinity chromatography of 125I-TGFβ1 on control gelatin-Sepharose"}, "[3]": {"target": "T2, TGF-β (Homo sapiens, UniProt P01137)", "T2 sequence (P01137 279-390 limits assumed)": "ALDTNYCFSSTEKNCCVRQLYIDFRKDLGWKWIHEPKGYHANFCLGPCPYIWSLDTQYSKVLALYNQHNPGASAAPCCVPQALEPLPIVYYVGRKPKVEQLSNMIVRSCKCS", "assay": "Binding of 125I-TGF-β to L-M(tk-) cells", "details": "for inhibition of binding of TGFβ1 to L-M(tk-) cells by synthetic peptides: various concentrations of peptide (FIG. 12)", "procedure": "(§1) About 2.5×10^4 HepG2 cells or L-M(tk-) cells were incubated with 250 pM[^125 I]TGF-β in the presence of recombinant human decorin (DC-12), PT-71 (MBP), decorin fragments (PT-72, -73, -84, -85, -86 and -87) or anti-TGF-β antibodies for 2 hours at room temperature. Cells were washed with washing buffer (128 mM NaCl, 5 mM KCl, 5 mM […], 1.2 mM CaCl2, 50 mM HEPES, pH 7.5) four times before determination of bound CPM.\nThe activity of the peptides was evaluated using the L-M(tk-) TGFβ1 binding inhibition assay described in Example VII, except various concentrations of peptide were incubated with the cells and TGFβ1 instead of decorin and recombinant decorin fragments. The negative control was a synthetic peptide corresponding to the first 15 amino acids of decorin, which has the sequence […](SEQ ID NO. 21)."}, "[4]": {"target": "T2, TGF-β", "assay": "Binding of 125I-TGF-β to immobilized decorin with competitors", "details": "400 pM 125I-TGF-β pre-incubated with competitor; overnight 0° C.", "procedure": "Immulon wells were coated with 0.5 μg/ml recombinant decorin at 50 μl/well. The wells were placed in a 37° C. incubator overnight and thereafter washed 3 times with 200 μl PBS (0.15M NaCl ) per well to remove unbound decorin. TGF-β labeled with ^125 I (400 pM, New England Nuclear, Bolton-Hunter Labeled) was pre-incubated with or without competitors in 200 μl PBS/0.05% Tween-20 for 1 hour and 45 minutes at room temperature. Competitors included recombinant human decorin preparations (DC-13 and DC-18v), decorin fragments, and MBP as a negative control.\nFifty μl/well of the pre-incubated ^125 I-TGF-β mixture or control were added and incubated overnight at 0° C. Following the incubation, 50 μl of the free TGF-β supernatants were transferred to labeled tubes. The plate was washed 3 times with 0.05% Tween-20 in PBS (200 μl/well). The wells were then transferred into tubes for counting in a gamma counter.\nFurther binding studies were conducted with soluble N-terminal decorin peptide fragments synthesized and tested for their ability to inhibit TGF-β1 binding to immobilized decorin as described above."}, "[5]": {"target": "T2, TGF-β", "assay": "Binding of 125I-TGF-β to HepG2 cells", "details": "250 pM [125I]TGF-β, 2 hours room temperature", "procedure": "as §1"}, "[6]": {"target": "T1, TGFβ-1", "assay": "[3H]thymidine incorporation assay: neutralization of TGFβ-1-induced growth inhibition in Mv1Lu cells", "assay_type": "cell-based, mink", "set-up": "contains a major band at 25 kd; This band represents the native TGFβ-1 dimer", "details": "TGFβ-1 0.5 ng/ml", "procedure": "Assay was performed as in FIG. 4A, except that TGFβ-1 was added at 0.5 ng/ml. This concentration of TGFβ induces 50% reduction of [^3 H]-thymidine incorporation in the Mv1Lu cells. The data represent neutralization of TGFβ-induced growth inhibition; i.e., [^3 H]-thymidine incorporation in the presence of neither TGFβ or decorin=100%; incorporation in the presence of TGFβ but not decorin=0%."}, "[7]": {"target": "T1, TGFβ-1", "assay": "Microtiter binding assay: [125I]-TGFβ-1 binding to decorin-coated wells and competition", "set-up": "contains a major band at 25 kd; This band represents the native TGFβ-1 dimer; purchased Calbiochem, La Jolla, Calif", "procedure": "The binding of TGFβ-1 to decorin was also examined in a microtiter binding assay. To perform the assay, the wells of a 96-well microtiter plate were coated overnight with 2μg/ml of recombinant decorin in 0.1M sodium carbonate buffer, pH 9.5. The wells were washed with PBS containing 0.05% Tween (PBS/Tween) and samples containing 5×10^4 cpm of [^125 I]-TGFβ-1 and various concentrations of competitors in PBS/Tween were added to each well. The plates were then incubated at 37° C. for 4 hours (at 4° C. overnight in experiments with chondroitinase ABC-digested proteoglycans), washed with PBS/Tween and the bound radioactivity was solubilized with 1% SDS in 0.2M NaOH. Total binding without competitors was about 4% under the conditions used. Nonspecific binding, determined by adding 100-fold molar excess of unlabeled TGFβ-1 over the labeled TGFβ-1 to the incubation mixture, was about 13% of total binding. This assay was also used to study the ability of other decorin preparations and related proteins to compete with the interaction.\nDecorin isolated from bovine skin and biglycan isolated from bovine articular cartilage (PGI and PGII, obtained from Dr. Lawrence Rosenberg, Monteflore Medical Center, N.Y.; and described in Rosenberg et al., J. Biol. Chem. 250:6304-6313, (1985), incorporated by reference herein), chicken cartilage proteoglycan (provided by Dr. Paul Goetinck, La Jolla Cancer Research Foundation, La Jolla, Calif., and described in Goetinck, P. F., in THE GLYCOCONJUGATES, Vol. III, Horwitz, M. I., Editor, pp. 197-217, Academic Press, NY). For the preparation of core proteins, proteoglycans were digested with chondroitinase ABC (Seikagaku, Tokyo, Japan) by incubating 500 μg of proteoglycan with 0.8 units of chondroitinase ABC in 250 μl of 0.1M Tris/Cl, pH 8.0, 30 mM sodium acetate, 2 mM PMSF, 10 mM N-ethylmalelmide, 10 mM EDTA, and 0.36 mM pepstatin for 1 hour at 37° C. Recombinant decorin and decorin isolated from bovine skin (PGII) inhibited the binding of [^125 I]-TGFβ-1, as expected (FIG. 3A). […] This notion was further supported by competition experiments with the mutated decorin core protein (not shown) and chondroitinase ABC-digested decorin and biglycan (FIG.3B). Each of these proteins was inhibitory, whereas cartilage proteoglycan core protein was not."}, "[8]": {"target": "T1, TGFβ-1", "assay": "[3H]thymidine incorporation assay: neutralization of TGFβ-1-induced growth stimulation in CHO cells", "assay_type": "cell-based", "set-up": "contains a major band at 25 kd; This band represents the native TGFβ-1 dimer; purchased Calbiochem, La Jolla, Calif", "procedure": "The ability of decorin to modulate the activity of TGFβ-1 was examined in [^3 H]thymidine incorporation assays. In one assay, an unamplified CHO cell line transfected only with pSV2dhfr (control cell line A in reference 1, called CHO cells here) was used. The cells were maintained in nucleoside-free alpha-modified minimal essential medium (e-MEM, GIBCO, Long Island, N.Y.) supplemented with 9% dialyzed fetal calf serum (dFCS) and [^3 H]thymidine incorporation was assayed as described (Cheifetz et al., Cell 48:409-415 (1987)). TGFβ-1 was added to the CHO cell cultures at 5 ng/ml. At this concentration, it induced a 50% increase of [^3 H]thymidine incorporation in these cells. Decorin or BSA was added to the medium at different concentrations. The data represent percent neutralization of the TGFβ-1-induced growth stimulation, i.e., [^3 H]thymidine incorporation, in the absence of either TGFβ-1 or decorin=0%, incorporation in the presence of TGFβ-1 but not decorin=100%. […] Decorin (.circle-solid.) BSA (.largecircle.).\nIgG from a normal rabbit serum had no effect in the assay (.largecircle.)."}, "[9]": {"target": "TGFβ-1 (Homo sapiens (Human), UniProt P01137, 125I label in most assays (chloramine T method in Example II; Bolton-Hunter labeled in Example VI); unlabeled in the experiment of Table I and in the growth assays)", "assay": "soluble peptide competitor of 125I-TGF-β binding to immobilized decorin", "experimental": "The wells were placed in a 37° C. incubator overnight and thereafter washed 3 times with 200 µl PBS (0.15M NaCl) per well to remove unbound decorin.\nFollowing the incubation, 50 µl of the free TGF-β supernatants were transferred to labeled tubes. The plate was washed 3 times with 0.05% Tween-20 in PBS (200 µl/well). The wells were then transferred into tubes for counting in a gamma counter."}}, "note": "“Also recorded” adds a separate entry of the source.", "data": [{"molecule": "recombinant human decorin (from UniProt P07585)", "values": [{"measurement": "3H-thymidine incorporation in CHO cells stimulated with 5 ng/ml TGFβ-1, half maximal neutralization", "setting": "[1]", "value": 5, "unit": "µg/mL"}]}, {"molecule": "gelatin", "values": [{"measurement": "percent of the radioactivity in the urea-eluted fraction", "setting": "[2]", "value": 2, "unit": "%"}]}, {"molecule": "PFRSQSHLRVVQ [P25 -Q36, 18]", "values": [{"measurement": "inhibition of binding of TGFβ1 to L-M(tk-) cells by synthetic peptides", "setting": "[3]", "value": "inhibited"}]}, {"molecule": "PFRCQCHLRVVQ [nP25 -Q36, 20]", "values": [{"measurement": "inhibition of binding of TGFβ1 to L-M(tk-) cells by synthetic peptides", "setting": "[3]", "value": "demonstrated inhibitory activity, albeit to a lesser extent"}]}, {"molecule": "B1", "values": [{"measurement": "inhibition of 125I-TGF-β binding to immobilized decorin", "setting": "[4]", "value": "inhibited"}]}, {"molecule": "B2", "values": [{"measurement": "inhibition of 125I-TGF-β binding to HepG2 cells", "setting": "[5]", "value": "inhibited"}, {"measurement": "inhibition of 125I-TGF-β binding to L-M(tk-) cells", "setting": "[3]; 250 pM [125I]TGF-β, 2 hours room temperature, proteins", "value": "inhibited"}]}, {"molecule": "B3", "values": [{"measurement": "inhibition of 125I-TGF-β binding to immobilized decorin", "setting": "[4]", "value": "inhibited"}]}, {"molecule": "B4", "values": [{"measurement": "effect on TGFβ-1-induced growth inhibition", "setting": "[6]", "value": "revealed an effect by decorin on the activity of TGFβ-1"}, {"measurement": "inhibition of [125I]-TGFβ-1 binding to decorin-coated wells", "setting": "[7]; intact proteoglycans, 37° C. 4 hours (FIG. 3A)", "value": "inhibited"}, {"measurement": "half maximal activity, neutralization of growth stimulatory activity of TGFβ-1", "setting": "[8]; TGFβ-1 5 ng/ml", "value": "about 5 μg/ml"}, {"measurement": "[3H]-thymidine incorporation with additional decorin", "setting": "[8]; higher decorin concentrations", "value": "suppressed the [^3 H]-thymidine incorporation below the level observed without any added TGFβ-1"}]}, {"molecule": "HLRVVQCSDLGL", "note": "[peptide 16G]", "values": [{"measurement": "binding result", "setting": "[9]", "value": "binds"}]}, {"molecule": "B5", "values": [{"measurement": "inhibition of [125I]-TGFβ-1 binding to decorin-coated wells by core proteins", "setting": "[7]; core proteins / chondroitinase ABC-treated, 4° C. overnight (FIG. 3B)", "value": "inhibitory; also recorded: somewhat more active than the intact proteoglycans"}, {"measurement": "binding of [125I]-TGFβ-1 to microtiter wells coated with the protein", "setting": "[7]; protein coated on wells", "value": "bound"}]}]}
